Test results from patent publication US20210107971A1 (UCB, published 2021).

How the values were obtained:
[1] = molecular target: T1, monoclonal 6470 rabbit Fab; test: competitive SPR: 6470 Fab pre-incubated with peptide, injected over immobilised human alpha synuclein monomer and fibrils; %inhibition
T1 construct: Fab heavy chain entry carries a C-terminal His tag
Description: Recombinant human alpha synuclein monomer and pre-formed alpha synuclein fibrils were immobilized on a CM5 chip using a Biacore 3000 instrument (GE Healthcare). Following activation of the carboxymethyl dextran surface by injection of 100 μl of a fresh 1:1 (v/v) mixture of 50 mM N-hydroxysuccimide and 200 mM 1-ethyl-3-(3-dimethylaminopropyl)-carbodiimide at a flow rate of 10 μl/min HBS-EP (GE Healthcare) as running buffer, coupling was achieved by injecting 100 μl of monomer and fibrils, at 5 μM in 10 mM acetate pH 5.0, over separate flow cells. A reference flow cell was activated in the same manner and then all flow cell surfaces were deactivated with a 50 μl pulse of 1 M ethanolamine HCl pH 8.5.
Peptide solutions were prepared in running buffer at 100 μM and a peptide blank control prepared as a 1 in 100 dilution of DMSO in running buffer. […] Sensograms were recorded for each sample by injecting 30 μl of the mixture at 10 μl/min and recording a report point 5 seconds before the end of the injection. […] Control cycles were alternated with peptide cycles.

[2] = molecular target: purified recombinant human alpha synuclein fibrils (human, UniProt P37840 1-140); test: affinity for human alpha synuclein fibrils, IgG4P; method not given

T1 sequence (V domain, as listed by the source): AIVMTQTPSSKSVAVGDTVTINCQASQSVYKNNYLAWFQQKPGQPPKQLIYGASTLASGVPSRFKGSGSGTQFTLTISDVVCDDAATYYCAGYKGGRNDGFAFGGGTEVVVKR

binding result [1]	Kd [2] [nM]	Binder
no binding		Ac-GILEDMPVDP-NH2 (Synthetic peptide of human alpha synuclein) [AS111-120]
no binding		Ac-EEGAPQEGIL-NH2 (Synthetic peptide of human alpha synuclein) [AS104-113]
no binding		Ac-SEEGYQDYEP-NH2 (peptide, UniProt P37840 129-138, looked up, synthetic 10-mer peptide) [129-138]
no binding		Ac-EGYQDYEPEA-OH (peptide, UniProt P37840 131-140, looked up, synthetic 10-mer peptide) [131-140]
no binding		Ac-PVDPDNEAYE-NH2 [AS117-126]
no binding		Ac-DPDNEAYEMP-NH2 (Synthetic peptide of human alpha synuclein) [AS119-128]
	5.28	6470gL3gH35 (antibody, V domains shown) VH: EVQLLESGGGLVQPGGSLRLSCAVSGIDLSSHDMYWVRQAPGKGLEYIGAIYASGSTYYASWAKGRFTISKDSSKNTVYLQMNSLRAEDTAVYYCAKIHYGNSGGLWGQGTLVTVSS VL: DIQMTQSPSSLSASVGDRVTITCQASQSVYKNNYLAWFQQKPGKAPKQLIYGASTLASGVPSRFSGSGSGTQFTLTISSLQPEDFATYYCAGYKGGRNDGFAFGGGTKVEIKR
	0.198	6470gL8gH36 (antibody, V domains shown) VH: EVQLLESGGGLVQPGGSLRLSCAVSGIDLSSHDMYWVRQAPGKGLEYIGAIYASGSTYYASWAKGRFTISRDSSKNTLYLQMNSLRAEDTAVYYCARIHYGNSGGLWGQGTLVTVSS VL: DIQMTQSPSSLSASVGDRVTITCQASQSVYKNNYLAWFQQKPGKAPKQLIYGASTLASGVPSRFSGSGSGTDFTLTISSLQPEDFATYYCAGYKGGRNDGFAFGGGTKVEIKR
	0.246	6470gL8gH23 (antibody, V domains shown) VH: EVQLLESGGGLVQPGGSLRLSCAVSGIDLSSHDMYWVRQAPGKGLEYIGAIYASGSTYYASWAKGRFTISRDNSKNTVYLQMNSLRAEDTAVYYCARIHYGNSGGLWGQGTLVTVSS VL: DIQMTQSPSSLSASVGDRVTITCQASQSVYKNNYLAWFQQKPGKAPKQLIYGASTLASGVPSRFSGSGSGTDFTLTISSLQPEDFATYYCAGYKGGRNDGFAFGGGTKVEIKR
	0.377	6470gL6gH36 (antibody, V domains shown) VH: EVQLLESGGGLVQPGGSLRLSCAVSGIDLSSHDMYWVRQAPGKGLEYIGAIYASGSTYYASWAKGRFTISRDSSKNTLYLQMNSLRAEDTAVYYCARIHYGNSGGLWGQGTLVTVSS VL: DIQMTQSPSSLSASVGDRVTITCQASQSVYKNNYLAWFQQKPGKAPKSLIYGASTLASGVPSRFSGSGSGTQFTLTISSLQPEDFATYYCAGYKGGRNDGFAFGGGTKVEIKR
no binding		Ac-QEGILEDMPV-NH2 (Synthetic peptide of human alpha synuclein) [AS109-118]
no binding		Ac-MPSEEGYQDY-NH2 (Synthetic peptide of human alpha synuclein) [AS127-136]
no binding		Ac-LEDMPVDPDN-NH2 (Synthetic peptide of human alpha synuclein) [AS113-122]
